Article PMC5714199

Key:
Experiment in all cases: SPR
[1] = molecular target: TopA wild type (Streptomyces coelicolor, UniProt Q9X909 1-952)
[2] = molecular target: TopA881 (Streptomyces coelicolor, UniProt Q9X909 1-881, del882-952)
[3] = molecular target: CTDΔED (Streptomyces coelicolor, UniProt Q9X909 610-950, del951-952)
[4] = molecular target: TopA CTD (Streptomyces coelicolor, UniProt Q9X909 610-952)

Measured: binding result

B1: sstopA-biot 120 nt ssDNA (63% GC) (ssDNA)
DNA: not shown
binds: all assays above
